# From PMC7835363
# Key:
# [1] = molecular target: Schizosaccharomyces japonicus Yop1, full length, with a C-terminal SBP tag (Schizosaccharomyces japonicus) (UniProt B6K529); test: SEC-MALS; in the detergent DDM; 20 mM Tris/HCl pH 7.5, 100 mM NaCl, 0.03% DDM; protein 0.2-1 mg/ml; protein conjugate model
# [2] = molecular target: Yop1F65Bpa (S. japonicus Yop1 with the photoreactive probe Bpa at F65 in TM2) (Schizosaccharomyces japonicus) (UniProt B6K529); test: cross-linking + SEC; Yop1F65Bpa irradiated in liposomes, then membranes solubilized in DDM and run on SEC
# [3] = molecular target: Yop1F65Bpa (S. japonicus Yop1 with the photoreactive probe Bpa at F65 in TM2) (Schizosaccharomyces japonicus) (UniProt B6K529); test: cross-linking; photo-cross-linking through Bpa; purified protein reconstituted into liposomes of S. cerevisiae lipid extract at a protein:lipid molar ratio of 1:200; UV for 30 min on an ice-cold block; SDS-PAGE and Coomassie-blue staining
stoichiometry N [1],stoichiometry N [2],percent of monomers cross-linked into dimers [3] [%],Substance
2,–,–,"Schizosaccharomyces japonicus Yop1, full length, with a C-terminal SBP tag (from UniProt B6K529 1-191) (natural protein)"
–,2,> 75,Yop1F65Bpa (S. japonicus Yop1 with the photoreactive probe Bpa at F65 in TM2) (from UniProt B6K529 1-191) (natural protein)
